# In PMC9975500, “High level expression of nicotinamide nucleoside kinase from Saccharomyces cerevisiae and its purification and immobilization by one-step method” (Frontiers in Bioengineering and Biotechnology, 2023):
# B1: reScNRK1 (recombinant nicotinamide riboside kinase1; nicotinamide nucleoside kinase1) (Saccharomyces cerevisiae S288C) (protein)
# chain: MTSKKVILVALSGCSSSGKTTIAKLTASLFTKATLIHEDDFYKHDNEVPVDAKYNIQNWDSPEALDFKLFGKELDVIKQTGKIATKLIHNNNVDDPFTKFHIDRQVWDELKAKYDSINDDKYEVVIVDGFMIFNNTGISKKFDLKILVRAPYEVLKKRRASRKGYQTLDSFWVDPPYYFDEFVYESYRANHAQLFVNGDVEGLLDPRKSKNIKEFINDDDTPIAKPLSWVCQEILKLCKD
# notes: free enzyme
# Tests used:
# [1] = substrate: Nc1ncnc2c1ncn2[C@@H]1O[C@H](COP(=O)(O)OP(=O)(O)OP(=O)(O)O)[C@@H](O)[C@H]1O; assay: HPLC of NMN formed, Michaelis-Menten fit; type: biochemical, Saccharomyces cerevisiae; conditions: free enzyme, NR 1 mM, 10 mM MgCl2, 20 mM Tris-HCl pH 5.8, optimal temperature (30 °C for free enzyme)
# purified protein = substrate: NC(=O)c1ccc[n+]([C@@H]2O[C@H](CO)[C@@H](O)[C@H]2O)c1; assay: purified protein; conditions: free enzyme, ATP 1 mM, 10 mM MgCl2, 20 mM Tris-HCl pH 5.8, optimal temperature (30 °C for free enzyme)
protein,measurement,setting,value
B1,Km,[1],54.27 mM
same,Vmax,[1],137 µmol/min/mg
same,Km,purified protein,18.69 mM
same,Vmax,purified protein,98.4 µmol/min/mg
